Experimental data as given in publication PMC5536852.
Where two headings read alike, the source gives them in different places.

Assays:
[1] = molecular target: PP1γ, active form (His-tagged protein phosphatase 1 gamma) (UniProt P36873); test: enzyme inhibition kinetics
[2] = molecular target: PP1γ, active form (His-tagged protein phosphatase 1 gamma) (UniProt P36873); test: enzyme inhibition kinetics; remark: listed apart in the source

Chain of UniProt P36873 (P36873 whole entry): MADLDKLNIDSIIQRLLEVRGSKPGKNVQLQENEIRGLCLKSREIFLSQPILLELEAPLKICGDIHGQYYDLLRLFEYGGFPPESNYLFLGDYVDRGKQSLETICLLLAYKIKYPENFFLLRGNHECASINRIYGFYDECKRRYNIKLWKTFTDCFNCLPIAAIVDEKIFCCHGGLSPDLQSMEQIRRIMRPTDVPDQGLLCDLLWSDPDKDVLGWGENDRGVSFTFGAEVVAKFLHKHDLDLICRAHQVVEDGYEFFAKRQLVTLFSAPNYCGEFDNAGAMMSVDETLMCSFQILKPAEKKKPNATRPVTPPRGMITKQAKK

## His-tagged RRM1 (isolated RNA recognition motif 1 of SRSF1) (domain or fragment)
[1]
  Ki: 410 nM
[2]
  Ki: 350 nM
